Measured values: PMC8287954, “Assembly of higher-order SMN oligomers is essential for metazoan viability and requires an exposed structural motif present in the YG zipper dimer” (Nucleic Acids Research, 2021)
Values joined by “and” are separate entries in the source; they are usually repeats but may differ in a detail not shown here. Equal entries are not always repeated.

B2: Drosophila melanogaster Gemin2 (natural protein, UniProt Q9VVX0 1-245, looked up)
chain: MQHEPEDQTFQLQALEICEPDSSFDPQKPPESGEEYLMHMFYERKRCPAVVTKRSSKIRNNTGNTTLEMLDNPELPPFKCLLPTPEWRDEQVKSFQAARSQVLVLRKELANNNYDQSGEPPLTSDQEKWKEFCRNQQPLLSTLLHLTQNDLELLLEMLSKWLQDPNTTVDLLHDVWLARWLYATLVCLHLPLEPHVFSTLRYIARTCIHLRNQLKEDEVQRAAPYNLLLTLTVQVFAQNDFKDYI
notes: Drosophila melanogaster Gemin2 (dmGemin2); also called dmGemin2; dmG2; source: E. coli BL21(DE3), purified (Ni-NTA, chitin beads, Superdex 200)

Assays:
[1] = target: the molecule itself; assay: AUC; sedimentation velocity, 20 mM HEPES–NaOH pH 7.5, 300 mM NaCl, 0.1 mM TCEP, 0.16–1.0 mg/ml, 40 000 rpm; 25°C and 4°C (smaller species at 4°C)
[2] = target: B2; assay: SEC; complex reconstituted from separately purified proteins, two molar excess of dmGemin2, HFS tag cut with Ulp1, second Ni-NTA pass, Superdex 200 16/60 at 20°C, 20 mM Na/KPO4 pH 7.0, 300 mM NaCl, 1 mM DTT; conditions: both partners purified
[3] = target: the molecule itself; assay: AUC; sedimentation equilibrium, 4°C, 20 mM Tris-HCl pH7.4, 200 mM NaCl, 5 mM DTT; monomer to dimer
[4] = target: the molecule itself; assay: SEC-MALS; Superdex 200 10/300 GL, 0.5 ml/min, room temperature (20°C), 50 mM HEPES-NaOH pH 7.5, 250 mM NaCl, 5 mM DTT; self-association of the SMN•G2 unit, (SMN•G2)n
[5] = target: the molecule itself; assay: not stated; shown in Supplementary Figure S2; method not given
[6] = target: the molecule itself; assay: cross-linking; disulfide cross-linking of single-cysteine MBP-YG box fusions, 5 μM, 20 mM Tris-HCl pH 7.4, 200 mM NaCl, 1 mM EDTA, 10 mM maltose, 160 μM diamide, 1 h, 20°C; non-reducing SDS-PAGE
[7] = target: the molecule itself; assay: SEC-MALS; Superdex 200 10/300 GL, 0.5 ml/min, room temperature (20°C), 50 mM HEPES-NaOH pH 7.5, 250 mM NaCl, 5 mM DTT; self-association of the SMN•G2 unit, (SMN•G2)n; remark: listed apart in the source

B1: Drosophila melanogaster SMN (natural protein, UniProt Q9VV74 1-226, looked up)
chain: MSDETNAAVWDDSLLVKTYDESVGLAREALARRLADSTNKREEENAAAAEEEAGEISATGGATSPEPVSFKVGDYARATYVDGVDYEGAVVSINEEKGTCVLRYLGYENEQEVLLVDLLPSWGKRVRREQFLIAKKDEDEQLSRPKASAGSHSKTPKSSRRSRISGGLVMPPMPPVPPMIVGQGDGAEQDFVAMLTAWYMSGYYTGLYQGKKEASTTSGKKKTPKK
notes: Drosophila melanogaster SMN (dmSMN); In the reconstitution the HFS tag was cut off with Ulp1 after dmGemin2 was added; also called dmSMN; source: E. coli BL21(DE3), purified (Ni-NTA after lysis in guanidine•HCl, urea wash)
B1: binds [1]; binds [2].

B2 gave a Kd [3] of 33.4 ± 5 µM.

B3: Schizosaccharomyces pombe SMN•Gemin2 complex (complex)
chain 1: MDQSQKEVWDDSELRNAFETALHEFKKYHSIEAKGGVSDPDSRLDGEKLISAARTEESISKLEEGEQMINQQTETTLEGDTHIQQFADNKGLSDEKPETRAAETHQEFMEVPPPIRGLTYDETYKKLIMSWYYAGYYTGLAEGLAKSEQRKD
chain 2: MPSKRKRNPLQYQTSGSLDEETNQRSAFPQIDNNSASESLEYDIPLDGLDYLATVREEARKLVPFVAARREPETRETIPLRKLEIEAGKKSFDPFLRYLLNIIDKEGERLEQYMESSSLDASILPKNLQQWRVYIEHKAPCWAILAVVDLATVLEILESLSSWLEKDAIDLQSQWIFCFCYKLPELLNGEDISTLRSVLKSLRSTHTSFPALQMSASALQAVLVYRYGQKDLFQT
notes: S. pombe SMN (Smn1p); S. pombe Gemin2; also called spSMN•G2; wild-type Smn1p; source: bacterial co-expression, purified as previously described (24)
For B3, the “stoichiometry N” value [4] was 2 and 4.

B4: spSMN(A141Q)•Gemin2 (complex, Schizosaccharomyces pombe)
chain 1: MDQSQKEVWDDSELRNAFETALHEFKKYHSIEAKGGVSDPDSRLDGEKLISAARTEESISKLEEGEQMINQQTETTLEGDTHIQQFADNKGLSDEKPETRAAETHQEFMEVPPPIRGLTYDETYKKLIMSWYYAGYYTGLQEGLAKSEQRKD
chain 2: MPSKRKRNPLQYQTSGSLDEETNQRSAFPQIDNNSASESLEYDIPLDGLDYLATVREEARKLVPFVAARREPETRETIPLRKLEIEAGKKSFDPFLRYLLNIIDKEGERLEQYMESSSLDASILPKNLQQWRVYIEHKAPCWAILAVVDLATVLEILESLSSWLEKDAIDLQSQWIFCFCYKLPELLNGEDISTLRSVLKSLRSTHTSFPALQMSASALQAVLVYRYGQKDLFQT
notes: S. pombe SMN (Smn1p); S. pombe Gemin2; also called spA141Q; source: recombinant; yeast SMN•G2 complexes purified as previously described (24)
B4: binds [4].

B5: spSMN(Y137H)•Gemin2 (complex, Schizosaccharomyces pombe)
chain 1: MDQSQKEVWDDSELRNAFETALHEFKKYHSIEAKGGVSDPDSRLDGEKLISAARTEESISKLEEGEQMINQQTETTLEGDTHIQQFADNKGLSDEKPETRAAETHQEFMEVPPPIRGLTYDETYKKLIMSWYYAGYHTGLAEGLAKSEQRKD
chain 2: MPSKRKRNPLQYQTSGSLDEETNQRSAFPQIDNNSASESLEYDIPLDGLDYLATVREEARKLVPFVAARREPETRETIPLRKLEIEAGKKSFDPFLRYLLNIIDKEGERLEQYMESSSLDASILPKNLQQWRVYIEHKAPCWAILAVVDLATVLEILESLSSWLEKDAIDLQSQWIFCFCYKLPELLNGEDISTLRSVLKSLRSTHTSFPALQMSASALQAVLVYRYGQKDLFQT
notes: S. pombe SMN (Smn1p); S. pombe Gemin2; also called spY137H; source: recombinant; yeast SMN•G2 complexes purified as previously described (24)
B5: binds [4].

B6: spSMN(A145Q)•Gemin2 (complex, Schizosaccharomyces pombe)
chain 1: MDQSQKEVWDDSELRNAFETALHEFKKYHSIEAKGGVSDPDSRLDGEKLISAARTEESISKLEEGEQMINQQTETTLEGDTHIQQFADNKGLSDEKPETRAAETHQEFMEVPPPIRGLTYDETYKKLIMSWYYAGYYTGLAEGLQKSEQRKD
chain 2: MPSKRKRNPLQYQTSGSLDEETNQRSAFPQIDNNSASESLEYDIPLDGLDYLATVREEARKLVPFVAARREPETRETIPLRKLEIEAGKKSFDPFLRYLLNIIDKEGERLEQYMESSSLDASILPKNLQQWRVYIEHKAPCWAILAVVDLATVLEILESLSSWLEKDAIDLQSQWIFCFCYKLPELLNGEDISTLRSVLKSLRSTHTSFPALQMSASALQAVLVYRYGQKDLFQT
notes: S. pombe SMN (Smn1p); S. pombe Gemin2; also called spA145Q; source: recombinant; yeast SMN•G2 complexes purified as previously described (24)
B6: binds [4].

B7: spSMN(G143V)•Gemin2 (complex, Schizosaccharomyces pombe)
chain 1: MDQSQKEVWDDSELRNAFETALHEFKKYHSIEAKGGVSDPDSRLDGEKLISAARTEESISKLEEGEQMINQQTETTLEGDTHIQQFADNKGLSDEKPETRAAETHQEFMEVPPPIRGLTYDETYKKLIMSWYYAGYYTGLAEVLAKSEQRKD
chain 2: MPSKRKRNPLQYQTSGSLDEETNQRSAFPQIDNNSASESLEYDIPLDGLDYLATVREEARKLVPFVAARREPETRETIPLRKLEIEAGKKSFDPFLRYLLNIIDKEGERLEQYMESSSLDASILPKNLQQWRVYIEHKAPCWAILAVVDLATVLEILESLSSWLEKDAIDLQSQWIFCFCYKLPELLNGEDISTLRSVLKSLRSTHTSFPALQMSASALQAVLVYRYGQKDLFQT
notes: S. pombe SMN (Smn1p); S. pombe Gemin2; also called spG143V; source: recombinant; yeast SMN•G2 complexes purified as previously described (24)
B7: binds [4].

B8: MBP-dmSMN^186-220 (domain or fragment, Drosophila melanogaster, UniProt Q9VV74 186-220, looked up)
chain: GAEQDFVAMLTAWYMSGYYTGLYQGKKEASTTSGK
notes: The SEC-SAXS methods print 189-220 for this fusion; also called MBP-dmSMN^189–220; source: expressed from pETDuet at 37°C, purified (amylose resin, Superdex-200); not shown: MBP, N-terminal, kept
With B8 the “stoichiometry N” value [5] was 4 and 8.

B9: MBP-hsSMN^252-294(C289A, N283C) (domain or fragment, human, UniProt Q16637 252-294, looked up)
chain: DSLDDADALGSMLISWYMSGYHTGYYMGFRQCQKEGRASHSLN
notes: human SMN YG box, residues 252-294; also called hsSMN^N283C; source: E. coli BL21(DE3), purified (amylose resin); not shown: MBP, N-terminal, kept
B9: binds [6].

B10: MBP-hsSMN^252-294(C289A, R281C) (domain or fragment, human, UniProt Q16637 252-294, looked up)
chain: DSLDDADALGSMLISWYMSGYHTGYYMGFCQNQKEGRASHSLN
notes: human SMN YG box, residues 252-294; source: E. coli BL21(DE3), purified (amylose resin); not shown: MBP, N-terminal, kept
B10: binds [6].

B11: MBP-hsSMN^252-294(C289A, Y277C) (domain or fragment, human, UniProt Q16637 252-294, looked up)
chain: DSLDDADALGSMLISWYMSGYHTGYCMGFRQNQKEGRASHSLN
notes: human SMN YG box, residues 252-294; also called hsY277C; source: E. coli BL21(DE3), purified (amylose resin); not shown: MBP, N-terminal, kept
B11: binds [6].

B12: MBP-hsSMN^252-294(C289A, S262C) (domain or fragment, human, UniProt Q16637 252-294, looked up)
chain: DSLDDADALGCMLISWYMSGYHTGYYMGFRQNQKEGRASHSLN
notes: as for B10
B12: binds [6].

B13: MBP-hsSMN^252-294(C289A, T274C) (domain or fragment, human, UniProt Q16637 252-294, looked up)
chain: DSLDDADALGSMLISWYMSGYHCGYYMGFRQNQKEGRASHSLN
notes: human SMN YG box, residues 252-294; also called hsT274C; source: E. coli BL21(DE3), purified (amylose resin); not shown: MBP, N-terminal, kept
B13: binds [6].

B14: MBP-spSMN YG box (112–152) A141Y, A145C (domain or fragment, Schizosaccharomyces pombe, UniProt Q09808 112-152, looked up)
chain: PPPIRGLTYDETYKKLIMSWYYAGYYTGLYEGLCKSEQRKD
notes: S. pombe SMN, residues 112-152; SMN residues fused to the penultimate Thr of E. coli MBP with a Gly-Ser linker; also called A145C mutant with an A141Y substitution; source: E. coli BL21(DE3), purified (amylose resin); not shown: MBP, N-terminal, kept
B14: binds [6].

B15: Hs^1-275-GCN4(IL) chimera•Gemin2 (complex)
chain 1: not shown
chain 2: MAWVPAESAVEELMPRLLPVEPCDLTEGFDPSVPPRTPQEYLRRVQIEAAQCPDVVVAQIDPKKLKRKQSVNISLSGCQPAPEGYSPTLQWQQQQVAQFSTVRQNVNKHRSHWKSQQLDSNVTMPKSEDEEGWKKFCLGEKLCADGAVGPATNESPGIDYVQIGFPPLLSIVSRMNQATVTSVLEYLSNWFGERDFTPELGRWLYALLACLEKPLLPEAHSLIRQLARRCSEVRLLVDSKDDERVPALNLLICLVSRYFDQRDLADEPS
With B15 the “stoichiometry N” value [7] was 2.
